Results as given in US20160130347A1 (Hoffmann-La Roche, published 2016).
Changes are numbered by the printed parent chain.

T1: human MCSP(D3 domain)-avi-his (human, UniProt Q6UVK1 1587-2221, limits assumed)
T1 construct: domain: D3 domain; also called hu-MCSP(D3 domain)-avi-his
T1 sequence (looked up): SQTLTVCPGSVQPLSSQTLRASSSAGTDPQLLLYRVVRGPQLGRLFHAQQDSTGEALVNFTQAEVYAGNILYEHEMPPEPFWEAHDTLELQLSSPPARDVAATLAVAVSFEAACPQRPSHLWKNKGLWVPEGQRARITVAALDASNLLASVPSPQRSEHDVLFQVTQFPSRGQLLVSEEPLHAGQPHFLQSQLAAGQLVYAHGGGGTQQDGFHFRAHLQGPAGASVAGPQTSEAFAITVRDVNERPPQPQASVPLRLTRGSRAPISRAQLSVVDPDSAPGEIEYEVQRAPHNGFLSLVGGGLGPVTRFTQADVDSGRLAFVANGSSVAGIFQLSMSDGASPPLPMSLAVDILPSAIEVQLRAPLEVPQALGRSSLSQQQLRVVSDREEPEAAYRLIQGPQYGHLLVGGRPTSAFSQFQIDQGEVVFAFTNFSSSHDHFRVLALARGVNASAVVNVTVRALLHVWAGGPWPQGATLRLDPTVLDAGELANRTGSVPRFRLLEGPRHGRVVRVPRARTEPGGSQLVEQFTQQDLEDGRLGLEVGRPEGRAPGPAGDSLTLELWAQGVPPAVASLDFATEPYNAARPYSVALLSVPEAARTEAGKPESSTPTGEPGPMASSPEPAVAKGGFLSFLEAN

B1: hu Fab (MCSP)-Crossfab (CD3) (bispecific antibody)
chain 1: EVQLQESGPGLVKPSQSLSLTCSVTGYSITSGYYWNWIRQFPGNKLEWMGYITYDGSNNYNPSLKNRISITRDTSKNQFFLKLNSVTTEDTATYYCADFDYWGQGTTLTVSSASTKGPSVFPLAPSSKSTSGGTAALGCLVKDYFPEPVTVSWNSGALTSGVHTFPAVLQSSGLYSLSSVVTVPSSSLGTQTYICNVNHKPSNTKVDKKVEPKSCDGGGGSGGGGSDIQMTQSPSSLSASVGDRVTITCRASQDIRNYLNWYQQKPGKAPKLLIYYTSRLESGVPSRFSGSGSGTDYTLTISSLQPEDFATYYCQQGNTLPWTFGQGTKVEIKSSASTKGPSVFPLAPSSKSTSGGTAALGCLVKDYFPEPVTVSWNSGALTSGVHTFPAVLQSSGLYSLSSVVTVPSSSLGTQTYICNVNHKPSNTKVDKKVEPKSC
light: DIVLTQSPSSLSASLGDRVTISCSASQGIRNYLNWYQQRPDGTVKLLIYYTSSLHSGVPSRFSGSGSGTDYSLTISNLEPEDIATYYCQQYSKLPWTFGGGTKLEIKRTVAAPSVFIFPPSDEQLKSGTASVVCLLNNFYPREAKVQWKVDNALQSGNSQESVTEQDSKDSTYSLSSTLTLSKADYEKHKVYACEVTHQGLSSPVTKSFNRGEC
chain 2: EVQLVESGGGLVQPGGSLRLSCAASGYSFTGYTMNWVRQAPGKGLEWVALINPYKGVSTYNQKFKDRFTISVDKSKNTAYLQMNSLRAEDTAVYYCARSGYYGDSDWYFDVWGQGTLVTVSSASVAAPSVFIFPPSDEQLKSGTASVVCLLNNFYPREAKVQWKVDNALQSGNSQESVTEQDSKDSTYSLSSTLTLSKADYEKHKVYACEVTHQGLSSPVTKSFNRGEC
B2: hu Fab (MCSP)=Crossfab (CD3) (bispecific antibody)
chain 1: B1 chain 1
chain 2: EVQLVESGGGLVQPGGSLRLSCAASGYSFTGYTMNWVRQAPGKGLEWVALINPYKGVSTYNQKFKDRFTISVDKSKNTAYLQMNSLRAEDTAVYYCARSGYYGDSDWYFDVWGQGTLVTVSSASVAAPSVFIFPPSDEQLKSGTASVVCLLNNFYPREAKVQWKVDNALQSGNSQESVTEQDSKDSTYSLSSTLTLSKADYEKHKVYACEVTHQGLSSPVTKSFNRGECDGGGGSGGGGSDIVLTQSPSSLSASLGDRVTISCSASQGIRNYLNWYQQRPDGTVKLLIYYTSSLHSGVPSRFSGSGSGTDYSLTISNLEPEDIATYYCQQYSKLPWTFGGGTKLEIKRTVAAPSVFIFPPSDEQLKSGTASVVCLLNNFYPREAKVQWKVDNALQSGNSQESVTEQDSKDSTYSLSSTLTLSKADYEKHKVYACEVTHQGLSSPVTKSFNRGEC
B3: M4-3(A7)/ML2 IgG (antibody, V domains shown)
VH: QVQLQESGPGLVKPSQTLSLTCTVSGGSITDGYYWNWIRQHPGKGLEWIGYITFDGRNNYNPSLKSRVTISRDTSKNQFSLKLSSVTAADTAVYYCADFDYWGQGTLVTVSS
VL: DIQMTQSPSSLSASVGDRVTITCRASQGIRNYLNWYQQKPGKAPKLLIYYTSSLHSGVPSRFSGSGSGTDFTLTISSLQPEDFATYYCQQYSKLPWTFGQGTKVEIK
notes: Human IgG1 format
B4: M4-3(C1)/ML2(G3) IgG (antibody, V domains shown)
VH: B3 VH with D31S, R57S
VL: DIQMTQSPSSLSASVGDRVTITCRASQGIRNYLNWYQQKPGKAPKLLIYYTSSLHSGVPSRFSGSGSGTDYTLTISSLQPEDFATYYCQQYSALPWTFGQGTKVEIKR
notes: Human IgG1; also called MCSP M4-3(C1)ML2(G3)
B5: M4-3(B7)/ML2 IgG (antibody, V domains shown)
VH: B3 VH with D31S, R57I
VL: B3 VL
notes: Human IgG1 format
B6: M4-3/ML2 (E10/G3) IgG (antibody, V domains shown)
VH: B3 VH with D31S, F54Y, R57S
VL: B3 VL with Q27Y, N31G, Y87H, K93A
notes: Human IgG1 format; also called MCSP ML2(E10-G3)
B7: M4-3(C1)/ML2(E10) IgG (antibody, V domains shown)
VH: B3 VH with D31S, R57S
VL: B3 VL with Q27Y, N31G, Y87H
notes: Human IgG1 format
B8: M4-3(C1)/ML2 IgG (antibody, V domains shown)
VH: B3 VH with D31S, R57S
VL: B3 VL
notes: Human IgG1 format
B9: M4-3(C1)/ML2(C5) IgG (antibody, V domains shown)
VH: B3 VH with D31S, R57S
VL: B3 VL with Q27R, N31E, S52G, K93E
notes: Human IgG1 format
B10: M4-3/ML2 (C5/G3) IgG (antibody, V domains shown)
VH: B3 VH with D31S, F54Y, R57S
VL: B3 VL with Q27R, N31E, S52G, K93A
notes: Human IgG1 format; also called MCSP ML2(C5-G3)
B11: M4-3/ML2 (C5) IgG (antibody, V domains shown)
VH: B3 VH with D31S, F54Y, R57S
VL: B3 VL with Q27R, N31E, S52G, K93E
notes: Human IgG1 format
B12: M4-3(B8)/ML2 IgG (antibody, V domains shown)
VH: B3 VH with D31S
VL: B3 VL
notes: Human IgG1 format
B13: M4-3(A7)/ML2(C5) IgG (antibody, V domains shown)
VH: B3 VH
VL: B3 VL with Q27R, N31E, S52G, K93E
notes: Human IgG1 format
B14: M4-3(D6)/ML2 IgG (antibody, V domains shown)
VH: B3 VH with D31S, R57K
VL: B3 VL
notes: Human IgG1 format
B15: M4-3/ML2 (E10) IgG (antibody, V domains shown)
VH: B3 VH with D31S, F54Y, R57S
VL: B3 VL with Q27Y, N31G, Y87H
notes: Human IgG1 format
B16: M4-3(A7)/ML2(G3) IgG (antibody, V domains shown)
VH: B3 VH
VL: B3 VL with F71Y, K93A
notes: Human IgG1 format
B17: M4-3(A7)/ML2(E10) IgG (antibody, V domains shown)
VH: B3 VH
VL: B3 VL with Q27Y, N31G, Y87H
notes: Human IgG1 format
B18: M4-3/ML2(G3) IgG (antibody, V domains shown)
VH: B3 VH with D31S, F54Y, R57S
VL: B3 VL with F71Y, K93A
notes: Human IgG1 format

Each binder was assayed against human CD3 on T cells (human, UniProt P07766 23-126) (assay: cell-based or functional assay).
Sequence of human CD3 on T cells (P07766 23-126 limits assumed): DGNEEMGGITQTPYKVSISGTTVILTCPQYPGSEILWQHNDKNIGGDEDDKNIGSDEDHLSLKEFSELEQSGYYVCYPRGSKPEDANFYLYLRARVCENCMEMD
For B1, the “EC50 of killing (LDH release) of MV-3 cells, human PBMCs, E:T 10:1, ~24 h” value (“EC50 of killing” below) was 0.0254 nM.
For B2, the “EC50 of killing” value was 0.0898 nM.

These binders were tested against human MCSP on tumor cells (human, UniProt Q6UVK1 30-2322) (assay: cell-based or functional assay).
Sequence of human MCSP on tumor cells (Q6UVK1 30-2322): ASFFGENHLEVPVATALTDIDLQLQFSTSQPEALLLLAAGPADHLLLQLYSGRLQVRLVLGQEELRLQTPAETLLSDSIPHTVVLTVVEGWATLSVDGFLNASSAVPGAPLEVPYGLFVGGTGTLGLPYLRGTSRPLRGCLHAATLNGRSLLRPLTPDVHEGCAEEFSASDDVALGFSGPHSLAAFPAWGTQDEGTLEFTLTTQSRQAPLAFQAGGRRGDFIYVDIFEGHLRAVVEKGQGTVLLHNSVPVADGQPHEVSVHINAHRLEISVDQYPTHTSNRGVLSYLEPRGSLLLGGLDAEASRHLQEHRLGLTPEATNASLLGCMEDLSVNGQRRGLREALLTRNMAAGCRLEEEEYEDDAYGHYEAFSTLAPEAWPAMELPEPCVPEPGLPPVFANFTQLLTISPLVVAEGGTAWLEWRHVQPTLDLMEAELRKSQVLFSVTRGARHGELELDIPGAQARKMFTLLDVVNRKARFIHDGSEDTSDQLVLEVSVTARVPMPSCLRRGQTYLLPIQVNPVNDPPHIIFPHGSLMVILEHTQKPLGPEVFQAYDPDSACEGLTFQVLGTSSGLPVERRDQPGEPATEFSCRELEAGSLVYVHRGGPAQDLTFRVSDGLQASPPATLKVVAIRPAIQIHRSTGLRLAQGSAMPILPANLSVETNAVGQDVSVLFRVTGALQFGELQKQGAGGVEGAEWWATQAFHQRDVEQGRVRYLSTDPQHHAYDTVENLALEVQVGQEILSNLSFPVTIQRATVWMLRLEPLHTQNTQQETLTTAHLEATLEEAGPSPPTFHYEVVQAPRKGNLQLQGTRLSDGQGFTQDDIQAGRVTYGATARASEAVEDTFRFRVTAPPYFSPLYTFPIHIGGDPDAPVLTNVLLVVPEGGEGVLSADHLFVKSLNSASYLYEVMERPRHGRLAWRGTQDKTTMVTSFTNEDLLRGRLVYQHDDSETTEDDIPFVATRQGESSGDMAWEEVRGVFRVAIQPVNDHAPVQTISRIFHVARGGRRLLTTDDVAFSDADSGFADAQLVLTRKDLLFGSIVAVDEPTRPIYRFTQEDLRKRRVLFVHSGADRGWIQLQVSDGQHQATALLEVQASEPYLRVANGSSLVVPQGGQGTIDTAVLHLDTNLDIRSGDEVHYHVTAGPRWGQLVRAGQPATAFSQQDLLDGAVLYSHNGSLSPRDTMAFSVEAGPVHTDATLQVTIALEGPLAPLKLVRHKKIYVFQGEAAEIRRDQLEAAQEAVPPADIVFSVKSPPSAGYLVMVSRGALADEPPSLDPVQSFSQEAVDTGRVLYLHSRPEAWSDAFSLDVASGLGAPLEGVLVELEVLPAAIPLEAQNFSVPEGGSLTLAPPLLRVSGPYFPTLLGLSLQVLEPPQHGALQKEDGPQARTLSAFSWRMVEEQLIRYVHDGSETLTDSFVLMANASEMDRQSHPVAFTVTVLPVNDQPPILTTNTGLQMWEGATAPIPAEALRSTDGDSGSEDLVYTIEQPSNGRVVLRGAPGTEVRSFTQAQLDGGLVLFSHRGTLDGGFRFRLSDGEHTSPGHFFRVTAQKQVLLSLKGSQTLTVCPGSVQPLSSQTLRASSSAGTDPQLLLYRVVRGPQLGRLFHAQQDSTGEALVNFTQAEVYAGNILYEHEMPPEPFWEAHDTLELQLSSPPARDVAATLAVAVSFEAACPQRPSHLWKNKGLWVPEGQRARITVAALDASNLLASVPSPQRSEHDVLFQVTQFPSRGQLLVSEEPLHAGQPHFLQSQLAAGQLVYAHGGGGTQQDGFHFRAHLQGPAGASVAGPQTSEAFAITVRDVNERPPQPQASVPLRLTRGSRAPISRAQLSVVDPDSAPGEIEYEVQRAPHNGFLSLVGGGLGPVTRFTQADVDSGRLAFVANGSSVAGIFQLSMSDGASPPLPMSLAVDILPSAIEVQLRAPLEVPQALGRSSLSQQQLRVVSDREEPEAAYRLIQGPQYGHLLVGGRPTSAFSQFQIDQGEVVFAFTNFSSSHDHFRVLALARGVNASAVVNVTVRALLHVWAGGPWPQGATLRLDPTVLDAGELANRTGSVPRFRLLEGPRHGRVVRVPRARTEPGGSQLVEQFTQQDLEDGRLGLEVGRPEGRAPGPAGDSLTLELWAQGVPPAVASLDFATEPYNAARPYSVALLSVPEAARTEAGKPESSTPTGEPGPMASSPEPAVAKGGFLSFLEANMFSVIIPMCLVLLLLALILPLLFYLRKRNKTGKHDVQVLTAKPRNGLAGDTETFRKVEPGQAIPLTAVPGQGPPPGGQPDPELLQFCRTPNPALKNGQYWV
In the case of B1, the “EC50 of killing” value is reported as 0.0254 nM.
For B2, the “EC50 of killing” value was 0.0898 nM.

Each binder was assayed against T1, human MCSP(D3 domain)-avi-his (assay: ratio of ProteOn IgG KD against parental M4-3/ML2 IgG).
Experimental: (§1) Briefly, carboxymethylated dextran biosensor chips (CM5, GE Healthcare) were activated with N-ethyl-N′-(3-dimethylaminopropyl)-carbodiimide hydrochloride (EDC) and N-hydroxysuccinimide (NHS) according to the supplier's instructions. Anti-human F(ab′)2 fragment specific capture antibody was diluted with 10 mM sodium acetate, pH 5.0 at 50 μg/ml before injection at a flow rate of 10 μl/minute to achieve approximately up to 10.000 response units (RU) of coupled capture antibody. Following the injection of the capture antibody, 1 M ethanolamine is injected to block unreacted groups. For kinetics measurements, Fabs from bacterial supernatant or purified Fabs were injected at a flow rate of 10 ul/minute for 300 s and a dissociation of 300 s for capture baseline stabilization. Capture levels were in the range of 100-500 RU. […] The surface of the sensorchip was regenerated by injection of glycine pH 1.5 for 30 s at 90 ul/min followed by injection of NaOH for 20 s at the same flow rate. Association rates (kon) and dissociation rates (koff) were calculated using a simple one-to-one Langmuir binding model (ProteOn XPR36 Evaluation Software or Scrubber software (BioLogic)) by simultaneously fitting the association and dissociation sensorgrams. The equilibrium dissociation constant (KD) was calculated as the ratio koff/kon.
(§2) Method exactly as described for the Fab fragments, just purified IgG from mammalian production were used.
B3 was tested, and the “fold increase over parent (IgG KD, comparative binding affinity)” value (“fold increase over parent” below) was 2.5 fold.
In the case of B4, the “fold increase over parent” value is reported as 28.6 fold.
In the case of B5, the “fold increase over parent” value is reported as 4 fold.
With B6 the “fold increase over parent” value was 5 fold.
In the case of B7, the “fold increase over parent” value is reported as 4 fold.
With B8 the “fold increase over parent” value was 2.2 fold.
For B9, the “fold increase over parent” value was 10 fold.
For B10, the “fold increase over parent” value was 2.9 fold.
For B11, the “fold increase over parent” value was 5 fold.
In the case of B12, the “fold increase over parent” value is reported as 2.2 fold.
B13 was tested, and the “fold increase over parent” value was 28.6 fold.
In the case of B14, the “fold increase over parent” value is reported as 5 fold.
B15 was tested, and the “fold increase over parent” value was 2 fold.
B16 was tested, and the “fold increase over parent” value was 28.6 fold.
With B17 the “fold increase over parent” value was 6.7 fold.
In the case of B18, the “fold increase over parent” value is reported as 6.7 fold.

The binders below were run against T2, cynomolgus MCSP D3 (cynomolgus) in the same assay as above.
T2 construct: domain: D3; also called Cyno MCSP; cynomolgus homologue
Experimental: as §1, §2
For B3, the “fold increase over parent” value was 2 fold.
For B4, the “fold increase over parent” value was 10 fold.
For B5, the “fold increase over parent” value was 2.9 fold.
In the case of B6, the “fold increase over parent” value is reported as 2.2 fold.
For B7, the “fold increase over parent” value was 3.3 fold.
B8 was tested, and the “fold increase over parent” value was 2.5 fold.
For B9, the “fold increase over parent” value was 6.7 fold.
B10 was tested, and the “fold increase over parent” value was 2 fold.
With B11 the “fold increase over parent” value was 2 fold.
For B12, the “fold increase over parent” value was 2 fold.
In the case of B13, the “fold increase over parent” value is reported as 10 fold.
With B14 the “fold increase over parent” value was 2 fold.
For B15, the “fold increase over parent” value was 1 fold.
B16 was tested, and the “fold increase over parent” value was 10 fold.
With B17 the “fold increase over parent” value was 2.9 fold.
For B18, the “fold increase over parent” value was 3.3 fold.
